Two molecules from US20200157212A1 (Pfizer, published 2020) can be followed below.

Changes are numbered by the printed parent chain.

The target of test [1] is T1, Human ROBO2 Ig1-Ig2-His (human, UniProt Q9HCK4 31-220).
T1 construct: the His tag is named only in the SPR paragraphs; the Octet and ELISA paragraphs print 'ROBO2 Ig1-Ig2' without a tag; also called ROBO2 Ig1-2; Human ROBO2 Ig 1,2
T1 sequence: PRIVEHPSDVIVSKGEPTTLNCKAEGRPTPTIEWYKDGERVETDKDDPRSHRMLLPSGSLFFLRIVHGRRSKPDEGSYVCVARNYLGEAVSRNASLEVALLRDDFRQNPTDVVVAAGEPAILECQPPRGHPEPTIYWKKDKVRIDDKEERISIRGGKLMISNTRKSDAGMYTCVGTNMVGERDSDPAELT
Description: SPR (Biacore T200), Abcs35 immobilized on a CM5 chip, ROBO2 Ig1-Ig2-His as analyte; column head kon(1/Ms). The protocol:
[…] Association and dissociation were followed over time.
Based upon several criteria, Abcs25 and Abcs35 were selected for further characterization. Using flow cytometry, improvement in the binding EC₅₀ to human ROBO2 relative to the parental 93H2 was evaluated. Starting at 6.7 nM, 11-point, 3-fold dilution series were made for each antibody and used to stain HEK293 overexpressing human ROBO2 as described above for the ROBO2 fold selectivity (Example 2). […] In addition to measuring improved binding to human ROBO2, it was important to ensure that high affinity binding to both cynomolgus monkey ROBO2 and rat ROBO2 was maintained. Using HEK293 cells overexpressing either cynomolgus monkey ROBO2 or rat ROBO2, the relative dose-dependent binding of 93H2, Abcs25 and Abcs35 was evaluated as described above. High affinity binding to both cynomolgus monkey and rat ROBO2 was maintained in Abcs25 and Abcs35 (Table 4). […] Briefly, Abcs35 was immobilized to 300 resonance units (RU) on a CM5 chip. Association of ROBO2 Ig1-Ig2-His (ROBO2) was measured over 5 minutes and dissociation was followed for a period of 10 minutes.

For test [2], the target named is T2, Human ROBO2 KSR mutant overexpressed on HEK293 cells (human, UniProt Q9HCK4 22-1378).
T2 construct: R100K and K102R already in the entry
T2 sequence: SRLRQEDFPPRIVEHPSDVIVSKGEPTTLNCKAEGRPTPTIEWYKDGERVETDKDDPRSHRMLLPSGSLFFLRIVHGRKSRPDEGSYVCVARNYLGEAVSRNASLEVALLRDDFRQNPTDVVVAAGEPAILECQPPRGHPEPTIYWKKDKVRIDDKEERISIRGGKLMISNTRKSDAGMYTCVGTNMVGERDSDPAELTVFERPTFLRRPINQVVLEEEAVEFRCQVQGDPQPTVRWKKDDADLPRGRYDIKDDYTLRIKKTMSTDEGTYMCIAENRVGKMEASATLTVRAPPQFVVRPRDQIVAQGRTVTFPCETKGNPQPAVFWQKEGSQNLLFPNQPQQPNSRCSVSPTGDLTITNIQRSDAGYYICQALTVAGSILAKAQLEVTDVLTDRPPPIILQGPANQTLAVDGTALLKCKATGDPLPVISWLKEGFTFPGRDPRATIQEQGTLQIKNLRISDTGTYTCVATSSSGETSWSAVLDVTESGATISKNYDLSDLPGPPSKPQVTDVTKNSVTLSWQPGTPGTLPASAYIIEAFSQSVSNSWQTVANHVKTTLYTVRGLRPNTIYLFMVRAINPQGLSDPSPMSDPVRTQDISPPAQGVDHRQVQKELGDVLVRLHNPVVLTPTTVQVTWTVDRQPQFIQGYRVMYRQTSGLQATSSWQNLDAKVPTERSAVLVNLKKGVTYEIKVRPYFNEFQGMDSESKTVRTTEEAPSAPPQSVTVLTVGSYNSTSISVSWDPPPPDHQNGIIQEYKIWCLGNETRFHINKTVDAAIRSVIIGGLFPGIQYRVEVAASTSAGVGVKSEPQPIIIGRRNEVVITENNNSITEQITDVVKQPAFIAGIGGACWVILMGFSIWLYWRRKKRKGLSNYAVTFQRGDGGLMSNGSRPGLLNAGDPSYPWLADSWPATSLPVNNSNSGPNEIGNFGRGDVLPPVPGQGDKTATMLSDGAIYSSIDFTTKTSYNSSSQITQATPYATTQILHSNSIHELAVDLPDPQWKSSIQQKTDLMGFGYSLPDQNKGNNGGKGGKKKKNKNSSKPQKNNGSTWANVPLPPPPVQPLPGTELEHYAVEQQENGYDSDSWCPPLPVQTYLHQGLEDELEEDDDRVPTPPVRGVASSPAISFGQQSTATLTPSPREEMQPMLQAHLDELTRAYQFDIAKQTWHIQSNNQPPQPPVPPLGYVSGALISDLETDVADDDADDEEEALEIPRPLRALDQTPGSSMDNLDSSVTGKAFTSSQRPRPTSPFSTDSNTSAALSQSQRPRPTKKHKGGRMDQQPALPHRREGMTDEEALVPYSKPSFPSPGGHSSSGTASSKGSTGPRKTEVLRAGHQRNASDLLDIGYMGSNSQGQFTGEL
Description: flow cytometry on HEK293 cells overexpressing the ROBO2-KSR mutant. The protocol:
The binding profile of Abcs35-J compared to Abcs35 was determined for human ROBO2, orthologs from cynomolgus monkey and rat, human ROBO1 and specificity for the RSK epitope from ROBO2 but not KSR from ROBO1. Binding was assessed by flow cytometry as described in Examples 2 (homolog specificity), Example 3 (ortholog reactivity) and Example 5 (RSK vs KSR epitope specificity). […] Binding of the antibodies was detected using a secondary fluorochrome conjugated anti-human IgG F(ab′)₂ antibody and samples analyzed on a Fortessa cytometer (BD Biosciences). […] FIGS. 16A-16F depicts binding profiles of Abcs35 (black circles) or Abcs35-J (grey squares) to human ROBO2 (FIG. 16A), cynomolgus monkey ROBO2 (FIG. 16B), rat ROBO2 (FIG. 16C), human ROBO1 (FIG. 16D), ROBO1 containing the ROBO2 RSK epitope (FIG. 16E) or ROBO2 containing the ROBO1 KSR epitope (FIG. 16 F).

B1: Abcs35 (antibody, human IgG1, kappa)
heavy: EVQLVQSGAEVKKPGASVKVSCKASGYTFTGYYMHWVRQAPGQGLEWMGWINPKNGDTEFPQKFQGRVTMTRDTSITTAYMDLSRLRSDDTAVYYCARESGDDAFDIWGQGTMVTVSSASTKGPSVFPLAPSSKSTSGGTAALGCLVKDYFPEPVTVSWNSGALTSGVHTFPAVLQSSGLYSLSSVVTVPSSSLGTQTYICNVNHKPSNTKVDKKVEPKSCDKTHTCPPCPAPEAAGAPSVFLFPPKPKDTLMISRTPEVTCVVVDVSHEDPEVKFNWYVDGVEVHNAKTKPREEQYNSTYRVVSVLTVLHQDWLNGKEYKCKVSNKALPAPIEKTISKAKGQPREPQVYTLPPSREEMTKNQVSLTCLVKGFYPSDIAVEWESNGQPENNYKTTPPVLDSDGSFFLYSKLTVDKSRWQQGNVFSCSVMHEALHNHYTQKSLSLSPGK
light: DIVMTQSPSSLSASVGDRVTITCRASQSISSYLNWYQQKPGKAPKLLIYAASSLQSGVPSRFSGSGSGTDFTLTISSLQPEDFATYYCQQSVGLFFGGGTKVEIKRTVAAPSVFIFPPSDEQLKSGTASVVCLLNNFYPREAKVQWKVDNALQSGNSQESVTEQDSKDSTYSLSSTLTLSKADYEKHKVYACEVTHQGLSSPVTKSFNRGEC
notes: fully human IgG1; VH of Ab96 with VL of Ab123
The molecule B1 had a kon in test [1] of 2.96e+07 M⁻¹ s⁻¹.

B2: Abcs35-J (antibody, human IgG1, kappa)
heavy: B1 heavy with D82E
light: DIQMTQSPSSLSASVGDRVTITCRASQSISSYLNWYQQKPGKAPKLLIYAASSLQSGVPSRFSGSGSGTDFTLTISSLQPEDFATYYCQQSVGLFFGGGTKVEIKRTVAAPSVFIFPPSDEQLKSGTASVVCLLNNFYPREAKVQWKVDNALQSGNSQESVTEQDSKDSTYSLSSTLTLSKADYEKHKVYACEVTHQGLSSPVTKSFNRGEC
notes: germlined variant of Abcs35; also called ABCS-J
Consider B2, for which the binding result in test [2] is on record as “no binding (tested: last point just below 10^1 nM)”.
